# Molecular target: Haemagglutinin (HA) of influenza A/Delaware/55/2019 (H1N1), from Flucelvax monovalent drug substance (Monobulk) (influenza A virus A/Delaware/55/2019 (H1N1))
# Experiment: SEC
substance,measurement,value
"Haemagglutinin (HA) of influenza A/Delaware/55/2019 (H1N1), from Flucelvax monovalent drug substance (Monobulk) (natural protein)",stoichiometry N,3

# Reference: article PMC10073703
